The results in this text go back to article PMC8860586, “Vimentin binds to G-quadruplex repeats found at telomeres and gene promoters”.

Series [1] addresses T1, Vimentin (Homo sapiens, UniProt P08670 2-466). The experiment in a line: EMSA; 150 mM KCl, pH 8.4; 5 mM Tris-HCl pH 8.4, 150 mM KCl; FA 5 nM DNA at 25 C; EMSA 500 nM DNA + 8 uM vimentin, 1 h room temperature, 1.5% agarose 0.5x TBE + 10 mM KCl, run at 4 C. Particulars: protein: commercial, chain copies: 4. (A gel shift assay detects complexes by their altered migration in electrophoresis.)

Series [2] has as its target T1, Vimentin. Kind of series: EMSA; 150 mM KCl, pH 8.4; Job plot max 0.1 DNA fraction, two tetramers per DNA; 5 mM Tris-HCl pH 8.4, 150 mM KCl; FA 5 nM DNA at 25 C; EMSA 500 nM DNA + 8 uM vimentin, 1 h room temperature, 1.5% agarose 0.5x TBE + 10 mM KCl, run at 4 C. The note with it: protein: commercial; chain copies: 4; four adjacent G4s.
The target of series [3] is T1, Vimentin. Kind of series: EMSA; 150 mM KCl, pH 8.4; two complexes; 5 mM Tris-HCl pH 8.4, 150 mM KCl; FA 5 nM DNA at 25 C; EMSA 500 nM DNA + 8 uM vimentin, 1 h room temperature, 1.5% agarose 0.5x TBE + 10 mM KCl, run at 4 C. The note with it: protein: commercial; chain copies: 4; three adjacent G4s.
Series [4] addresses T1, Vimentin. Kind of series: EMSA; no KCl, pH 8.4; 5 mM Tris-HCl pH 8.4, 150 mM KCl; FA 5 nM DNA at 25 C; EMSA 500 nM DNA + 8 uM vimentin, 1 h room temperature, 1.5% agarose 0.5x TBE + 10 mM KCl, run at 4 C. The note with it: protein: commercial; chain copies: 4; unfolded single strand.
The target in series [5] is T1, Vimentin. Kind of series: fluorescence anisotropy; 150 mM KCl, pH 8.4, 25 C; tetramer concentration, 1:1 fit; 5 mM Tris-HCl pH 8.4, 150 mM KCl; FA 5 nM DNA at 25 C; EMSA 500 nM DNA + 8 uM vimentin, 1 h room temperature, 1.5% agarose 0.5x TBE + 10 mM KCl, run at 4 C. The note with it: protein: commercial; chain copies: 4; label: 5'-6-FAM; two adjacent G4s. (Fluorescence polarisation rises when a labelled molecule tumbles more slowly, as on binding a larger partner.)

T1 sequence (P08670 2-466): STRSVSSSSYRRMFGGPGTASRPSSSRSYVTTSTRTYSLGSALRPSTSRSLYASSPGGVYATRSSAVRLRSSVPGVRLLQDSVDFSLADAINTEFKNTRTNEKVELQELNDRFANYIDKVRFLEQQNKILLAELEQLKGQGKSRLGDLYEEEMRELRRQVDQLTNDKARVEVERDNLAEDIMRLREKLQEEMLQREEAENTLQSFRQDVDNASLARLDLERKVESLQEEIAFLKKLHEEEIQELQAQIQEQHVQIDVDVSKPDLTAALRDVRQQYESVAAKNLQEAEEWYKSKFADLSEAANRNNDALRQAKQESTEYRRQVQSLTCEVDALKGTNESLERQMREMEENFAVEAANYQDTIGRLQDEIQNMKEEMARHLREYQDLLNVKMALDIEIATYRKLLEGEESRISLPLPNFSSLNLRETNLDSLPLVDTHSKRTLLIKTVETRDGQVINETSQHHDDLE

B1: KIT2 (structured_DNA)
DNA: CGGGCGGGCGCGAGGGAGGGG
Take B1: in series [1] (single G4), the binding result is “no binding”.

B2: ILPR (structured_DNA)
DNA: ACAGGGGTGTGGGGACAGGGGTGTGGGGACAGGGGTGTGGGGACAGGGGTGTGGGG
With B2, the binding result in series [1] (G4 repeat) is given as “binds”.

B3: hTERT (structured_DNA)
DNA: GGGGAGGGGCTGGGAGGGCCCGGAGGGGGCTGGGCCGGGGACCCGGGAGGGGTCGGGACGGGGCGGGG
In the case of B3, the binding result in series [1] (G4 repeat) is recorded as “binds”.

B4: 4TEL (structured_DNA)
DNA: TTAGGGTTAGGGTTAGGGTTAGGGTTAGGGTTAGGGTTAGGGTTAGGGTTAGGGTTAGGGTTAGGGTTAGGGTTAGGGTTAGGGTTAGGGTTAGGG
In the case of B4, the binding result in series [2] is on record as “binds”.

B5: 3TEL (structured_DNA)
DNA: TTAGGGTTAGGGTTAGGGTTAGGGTTAGGGTTAGGGTTAGGGTTAGGGTTAGGGTTAGGGTTAGGGTTAGGG
In the case of B5, the binding result in series [3] is “binds”.

B6: G-rich noG4 (ssDNA)
DNA: TGGCCCTGGTGGGCGGAGGCAAAGGGGGAGCCAGGGGCGGAGAAAGGGT
For the molecule B6, in series [4], the binding result is on record as “binds”.

B7: KIT2KIT* (structured_DNA)
DNA: CGGGCGGGCGCGAGGGAGGGGAGGCGAGGAGGGGCGTGGCCGGC
With B7, in series [1] (two adjacent G4s), the binding result is given as “binds”.

B8: KIT* (structured_DNA)
DNA: GGCGAGGAGGGGCGTGGCCGGC
With B8, the binding result in series [1] (single G4) was “no binding”.

B9: FAM-2TEL (structured_DNA)
DNA: TTAGGGTTAGGGTTAGGGTTAGGGTTAGGGTTAGGGTTAGGGTTAGGG
In the case of B9, the dissociation constant (Kd) (usually the free concentration of one partner at which half of the binding sites on the other are occupied at equilibrium, for simple one-to-one binding) in series [5] came to 25.7 ± 2.4 nM.

B10: TEL (structured_DNA)
DNA: TTAGGGTTAGGGTTAGGGTTAGGG
B10: in series [1] (single G4), the binding result was “no binding”.
